Results taken from patent US11795454B2, “Targeted delivery system” (Cedars-Sinai Medical Center, priority 2009, dated 2023).
Entries after “also recorded” stand apart in the source; their conditions may differ. Where two headings read alike, the source gives them in different places.

Legend:
[1] = mouse, in vivo
Text: (§1) Control (saline-injected) mice were euthanized early due to tumor ulceration, in compliance with IACUC policy. […] FIG. 30E, TUNEL staining and quantification in liver and kidney tissue obtained from treated mice. Micrographs obtained at 20× magnification (left set of panels) show fluorescently-stained nuclei in apoptotic cells (delineated areas are enlarged in micrographs to the right). Graph summarizes relative fluorescence intensities of each treated tissue (N>200 fields per treatment).
(§2) Fixed, sectioned tissues were processed by incubation in a dry 60° C. oven for 1 h followed by sequential submersion in xylenes for 4 min×5, then hydration in 100%, 95%, 90%, 80%, 70% ethanol for 3 min, 2 times each and final submersion in water. After Proteinase K (20 ug/ml in 10 mM Tris pH 7.8) incubation and rinsing in PBS, sections were treated for TUNEL staining following the manufacturer's instructions (XXX) and assessed by confocal fluorescence imaging. Here, 10 TUNEL images at different locations per tissue were acquired using a Leica confocal SPE microscope (20×, ex: 488 nm, and em: 530 nm). Central regions of each tissue were imaged to avoid fixation artifacts. Nuclear fluorescence intensities, reflective of DNA fragmentation, were measured and averaged using ImageJ.

[2] = mouse, in vivo; remark: listed apart in the source
Text: Histology of myocardia from treated mice. Micrographs show representative H&E stained specimens from treated mice.
Female immunodeficient (nu/nu) mice (6-8 weeks; Charles River Laboratories International, Wilmington, MA, USA) received subcutaneous bilateral flank injections of 1×10^7 indicated cells and monitored until tumors reached ˜200-300 mm3, at which point the following treatments were initiated. […] To assess therapeutic efficacy, a new group of tumor-bearing mice received daily i.v. (tail vein) injections of HerDox or Dox at indicated doses for 7 days followed by continued monitoring of tumor volumes (assessed by measuring tumor length and width using calipers, and applying LxW2), animal weights, and heart function. […] Cardiac function in anesthetized mice was evaluated by a Vevo 770 High-Frequency Ultrasound system (VisualSonics, Toronto, Canada). Heart rate and body temperature were monitored. Superficial hair was removed from the region of interest with a depilatory cream (Nair) before imaging. The 2-dimensional guided M-mode images of the left ventricle were obtained in the short-axis view at the papillary level with the mouse in the supine position. All primary measurements were traced manually and digitized by goal-directed software installed within the echocardiograph. Three beats were averaged for each measurement. All measurements were done from leading edge to leading edge according to the American Society of Echocardiography guidelines. At animal study completion, tissue harvested from euthanized mice were fixed in 4% paraformaldehyde/PBS at 4° C. for 24 h followed by transfer into 20% sucrose/PBS and storage at −80° C. before immunohistochemical processing. Specimens and hematoxylin/eosin staining were prepared by AML Laboratories, Inc., Baltimore, MD, USA.

[3] = system: MDA-MB-435 tumors; assay: Therapeutic efficacy in vivo, daily i.v. injections for 7 days; parameters: species or system mouse; conditions: for tumor growth: 0.004 mg/kg Dox equivalent, daily i.v. for seven days
[4] = system: MDA-MB-435(HER2+,GFP−)/MDA-MB-231(HER2−,GFP+) cell culture; assay: Targeting in a mixed HER2+/HER2− cell culture; assay type: cell-based, human; conditions: 0.5 uM, day 2
Protocol: All treatments, N=3. FIG. 27A. Comparing cytotoxicity to HER2+ (MDAMB-435) and HER2− (MDA-MB-231) cells in separate cultures. Left, Relative survival (as % of untreated cells) on day 3 of treatment. Right, Micrograph of live cells after treatment. Control, mock (HBS) treatment. FIG. 27B, Receptor specificity of cytotoxicity. […] FIG. 27C, Toxicity to cells displaying differential HER2. Cytotoxicities from HerDox titrations were assessed on each cell line by metabolic assay and confirmed by crystal violet stain on day 3 of treatment. CD50 values (shown in log scale) were determined by non-linear regression analyses of HerDox killing curves using GraphPad Prism. The relative HER2 level of each cell line is shown next to each CD50 value. FIG. 27D, Targeting in a mixed MDA-MB-435(HER2+,GFP−)/MDA-MB-231(HER2−,GFP+) cell culture. Survival was determined by calculating the relative doubling time (DT) of experimental (exp) cells normalized by mock-treated (con) cells based on crystal violet stains (total cells) and GFP fluorescence (MDAMB-231 cells), and applying DTMDA-MB-435=DTTotal-DTMDA-MB-231 as previously described. Relative survival is shown for Day 2 of treatment. […] U251 cells were treated once with the indicated HerDox (and competitive inhibitor where indicated) or Dox doses and measured for cell survival at the indicated time points after treatment. * P<0.05 compared to Mock. […]

[5] = system: MDA-MB-435 tumors; assay: HerDox/Dox tumor targeting, biodistribution and pharmacokinetics by fluorescence imaging
Protocol: Tumor-bearing mice were injected with 0.02 mg/kg (final Dox dose) of HerDox or Dox via the tail vein and imaged with a custom small animal imager. FIG. 19A, Imaging of live mice after TV delivery of HerDox. Time points are shown as minutes after injection. Tumors are indicated by arrows. FIG. 19B, Imaging of tumors and tissues harvested at 3 h after injection of HerDox or Dox. Fluorescence signal from Dox is pseudo-colored according to the color bar, with a shift toward 100 indicating high fluorescence intensity.
FIG. 29A, Live mouse imaging of HerDox at indicated time points after injection. Arrows, Tumors. 29B-29C, Comparative biodistribution of HerDox and Dox in tissues harvested at 3 h post-injection. FIG. 29B, Imaging of biodistribution in harvested tissues. Pseudocolored FI corresponds to the color bar. Max, highest FI. FIG. 29C, Quantification of HerDox and Dox biodistribution, showing Dox FI/tissue. FIG. 29D. Comparative pharmacokinetics of HerDox and Dox in mice with tumors expressing differential HER2. Tissues were harvested from independently injected mice euthanized at indicated time points after injection and FI/tissue acquired using a small animal imaging system as described herein.
Mice received a single tail vein injection of Dox alone or the complex (HerDox) (0.02 mg/kg with respect to Dox conc) and were imaged live using a customized macro-illumination and detection system.
Heart rate and body temperature were monitored. […] Three beats were averaged for each measurement.
A customized macro-illumination and detection system was used for in vivo and tissue imaging. Dox was excited with the 488 nm line of a Coherent Innova ArKr laser. Laser light (300 mW) was directed into a light-tight box via mirrors and expanded by an engineered circular tophat diffuser (Thorlabs ED1-C20) to a uniform circular beam of approximately 15 cm in diameter. The incidence angle to the vertical plane was approximately 150. Fluorescence light was collected via a telecentric lens (Melles-Griot 59LGG925 base lens with a 59LGL428 attachment lens) that can operate at f/#2, has a magnification of 0.9, working distance of 257 mm and a depth of field of 81.5 mm. A bandpass filter (580 nm with a 50 nm bandwidth) was used in the emission pathway to reject the excitation light. Images showing FI were collected with a cooled CCD camera (Hamamatsu ORCA-ER). Where indicated, a Maestro imager was used (Cedars-Sinai Imaging Core Facility). ImageJ was used to calculate average fluorescence intensities of the overall region of each selected tissue.
MDA-MB-435 tumor-bearing mice were imaged live after a single tail vein injection of HerDox, in order to visualize tumor-targeting ability in vivo.

[6] = system: MDA-MB-435 (HER2+) cells; assay: HerDox targeted toxicity in vitro, separate cultures; assay type: cell-based, human; conditions: MDA-MB-435, day 3
Protocol: All treatments, N=3. FIG. 27A. Comparing cytotoxicity to HER2+ (MDAMB-435) and HER2− (MDA-MB-231) cells in separate cultures. Left, Relative survival (as % of untreated cells) on day 3 of treatment. Right, Micrograph of live cells after treatment. Control, mock (HBS) treatment. FIG. 27B, Receptor specificity of cytotoxicity. […] FIG. 27C, Toxicity to cells displaying differential HER2. Cytotoxicities from HerDox titrations were assessed on each cell line by metabolic assay and confirmed by crystal violet stain on day 3 of treatment. CD50 values (shown in log scale) were determined by non-linear regression analyses of HerDox killing curves using GraphPad Prism. The relative HER2 level of each cell line is shown next to each CD50 value. FIG. 27D, Targeting in a mixed MDA-MB-435(HER2+,GFP−)/MDA-MB-231(HER2−,GFP+) cell culture. Survival was determined by calculating the relative doubling time (DT) of experimental (exp) cells normalized by mock-treated (con) cells based on crystal violet stains (total cells) and GFP fluorescence (MDAMB-231 cells), and applying DTMDA-MB-435=DTTotal-DTMDA-MB-231 as previously described. Relative survival is shown for Day 2 of treatment. FIG. 27E, Targeted glioma cell death in vitro. U251 cells were treated once with the indicated HerDox (and competitive inhibitor where indicated) or Dox doses and measured for cell survival at the indicated time points after treatment. * P<0.05 compared to Mock.
For all in vitro treatments, cell lines were grown for ˜36 h after plating (104/well in 96-well dishes) to allow receptor re-expression, followed by media replacement with new media containing indicated constructs in reduced volume at the indicated final molarities for 4 h with rocking, followed by supplementation with additional media and continued growth for the indicated time periods. Except for the experiments performed on the U251 glioma cells (which received a one-time treatment), cells received these treatments daily while separate sets of wells were assessed for cell death by either metabolic assay (CellTiter Promega Corporation, Madison, WI, USA) or crystal violet stain each day. Where indicated, cells received competitive inhibitor (eHRG) at 10× molar excess for 30 min-1 h at 4° C. before treatment. Treatment of mixed (HER2+/HER2−) cell cultures with HerDox or Dox (0.5 uM), and cell surface receptor subunit level determination were performed as previously described.

[7] = CryoEM of HerDox particles; assay type: physicochemical; conditions: mostly round particles
Protocol: Sample preparation and imaging was performed by NanoImaging Services, Inc., La Jolla, CA, USA.
CryoEM was performed by NanoImaging Services, Inc. (La Jolla, CA, USA) implementing the following procedures (provided by NanoImaging Services, Inc.): Samples were preserved in vitrified ice supported by carbon coated holey carbon films on 400 mesh copper grids. All samples were prepared by applying a 3 μL drop of undiluted sample suspension to a cleaned grid, blotting away with filter paper and immediately proceeding with vitrification in liquid ethane. Grids were stored under liquid Nitrogen until transferred to the electron microscope for imaging. All grids were prepared the day the sample was delivered (complexes were assembled immediately before delivery). Electron microscopy was performed using an FEI Tecnai T12 electron microscope, operating at 120 KeV equipped with an FEI Eagle 4K×4K CCD camera. Vitreous ice grids were transferred into the electron microscope using a stage that maintains the grids at below −170 C. Images of the grid were acquired at multiple scales to assess the overall distribution of the specimen. After identifying potentially suitable target areas for imaging at lower magnifications, higher magnification images were acquired at nominal magnifications of 52,000× (0.21 nm/pixel) and 21,000× (0.50 nm/pixel). […]

[8] = Stability in blood, ultrafiltration; assay type: in vitro ADME; conditions: 1 h at 37° C. in mouse blood
Text: FIG. 26A. Stability in blood. […] N=3. […] FIG. 26C. Assessing Dox retention in serum.

[9] = TUNEL staining of liver and kidney tissue of treated mice; conditions: mouse, in vivo
Text: as §1, §2

[10] = maximum FI, ˜3 h after injection
[11] = single tail vein injection, 0.02 mg/kg Dox

COc1cccc2c1C(=O)c1c(O)c3c(c(O)c1C2=O)C[C@@](O)(C(=O)CO)C[C@@H]3O[C@H]1C[C@H](N)[C@H](O)[C@H](C)O1.Cl [Dox, Doxorubicin-HCl, reference compound]
apoptosis in the kidney (TUNEL) [1]: Neither Dox nor HerDox showed substantial apoptosis
apoptosis in the liver (TUNEL) [1]: marked apoptosis
myocardial histology [2]: myofibrillar degeneration
stroke volume, cardiac output, left ventricular internal dimension and volume ([2]; 0.004 mg/kg): modest to marked reductions
tumor growth [3]: low efficacy
tumor ablation compared with HerDox ([3]; 10× higher Dox dose (0.04 mg/kg)): slightly less effective
cell growth in mixed cell culture [4]: reduced efficacy
fluorescence in the lungs and skeletal muscle ([5]; harvested ˜3 h after injection): Lower levels of fluorescence
fluorescence in the kidneys ([5]; mouse, in vivo): detectable fluorescence
fluorescence in the liver ([5]; mouse, in vivo): detectable fluorescence
fluorescence in the tumors ([5]; mouse, in vivo): detectable fluorescence
tumor accumulated Dox lower compared to HerDox ([5]; mouse, in vivo): 1000 fluorescence units
toxicity / survival [6]: no preference

B1: HerDox: self-assembled nanoparticle of oligonucleotide duplex, doxorubicin and HerPBK10 (conjugate)
chain: LPPRLKEMKSQESAAGSKLVLRCETSSEYSSLRFKWFKNGNELNRKNKPQNIKIQKKPGKSELRINKASLADSGEYMCKVISKLGNDSASANITIVESNEIITGMPASTEGAYVSSESPIRISVSTEGANTSSSTSTSTTGTSHLVKCAEKEKTFCVNGGECFMVKDLSNPSRYLCKCQPGFTGARCTENVPMKVQNQEKAEELYMRRAAMYEEGPPPSYESVVSAAPVAAALGSPFDAPLDPPFVPPRYLRPTGGRNSIRYSELAPLFDTTRVYLVDNKSTDVASLNYQNDHSNFLTTVIQNNDYSPGEASTQTINLDDRSHWGGDLKTILHTNMPNVNEFMFTNKFKARVMVSRLPTKDNQVELKYEWVEFTLPEGNYSETMTIDLMNNAIVEHYLKVGRQNGVLESDIGVKFDTRNFRLGFDPVTGLVMPGVYTNEAFHPDIILLPGCGVDFTHSRLSNLLGIRKRQPFQEGFRITYDDLEGGNIPALLDVDAYQASLKDDTEQGGGGAGGSNSSGSGAEENSNAAAAAMQPVEDMNDHAIRGDTFATRAEEKRAEAEAAAEAAAPAAQPEVEKPQKKPVIKPLTEDSKKRSYNLISNDSTFTQYRSWYLAYNYGDPQTGIRSWTLLCTPDVTCGSEQVYWSLPDMMQDPVTFRSTRQISNFPVVGAELLPVHSKSFYNDQAVYSQLIRQFTSLTHVFNRFPENQILARPPAPTITTVSENVPALTDHGTLPLRNSIGGVQRVTITDARRRTCPYVYKALGIVSPRVLSSRTFKKKKKKKKKK
particle diameter [7]: ~10 nm
Dox release in blood (filtrate/retentate fluorescence) [8]: no detectable fluorescence in filtrates nor loss from retentates
tumor growth [3]: ablation of tumor growth
dose for tumor ablation lower compared to untargeted doxorubicin ([3]; intravenous delivery): > 10 ×
cell growth in mixed cell culture [4]: substantially reduced HER2+ but not HER2− cell growth
fluorescence in heart, spleen, lungs, and skeletal muscle ([5]; harvested ˜3 h after injection): did not exhibit any fluorescence; also recorded: no detectable fluorescence
fluorescence in the kidneys ([5]; harvested ˜3 h after injection): barely detectable
fluorescence in the liver ([5]; harvested ˜3 h after injection): substantially lower levels of fluorescence
fluorescence in the tumors ([5]; harvested ˜3 h after injection): intense fluorescence
kidney FI lower than tumors [5, 10]: 65%
liver FI lower than tumors [5, 10]: 45%
time of kidney entry ([5]; pharmacokinetics, single i.v. injection): ≤ 10 min
time detectable in the tumors after injection [5, 11]: up to 100 min
time of accumulation at the tumors after injection [5, 11]: ≤ 20 min
tumor accumulation higher compared to normal tissue ([5]; up to 24 h, heart, liver, muscle, spleen, lung, kidneys): 500-1000 fluorescence units higher/tissue
toxicity / survival [6]: significant toxicity
apoptosis in the kidney (TUNEL) [9]: Neither Dox nor HerDox showed substantial apoptosis
apoptosis in the liver (TUNEL) [9]: did not; also recorded: negligible apoptosis
